Assay results published in patent CN118076384A (SPARKS BIOSCIENCE INC, dated 2024).

Tests used:
[1] = biological target: T1, PDL1 on MDA MB-231 human breast cancer cells (human, UniProt Q9NZQ7 19-290); test: flow cytometry on MDA MB-231 cells, anti-human IgG Fc secondary antibody
T1 construct: whole, on cells; also called 表达PD-L1的肿瘤细胞

[2] = biological target: PDL1 on PDL1 aAPC/CHOK1 cells (UniProt Q9NZQ7 19-290, limits assumed); test: cell-based or functional assay
[3] = biological target: T2, 人PD-L1 (recombinant protein of the phage ELISA) (human, UniProt Q9NZQ7 19-239, limits assumed); test: competitive phage ELISA, Fab on phage, soluble PD-L1 against coated PD-L1
T2 construct: also called CD274; B7同源物1

[4] = biological target: T2, 人PD-L1 (recombinant protein of the …); test: competitive phage ELISA, ratio to parental clone 12A4

Row | Binder | Kd [1] [nM] | EC50 of luminescence in the PDL1/PD1 blockade bioassay [2] [nM] | Kd [3] [nM] | 相对于12A4亲本克隆的改善 [4] [fold]
1 | 抗PDL1单克隆抗体12A4bad (antibody, V domains shown) VH: QVQLVQSGAEVKKPGSSVKVSCKTSGDTFSTYAISWVRQAPGQGLEWMGGIIPLFGKAHYAQKFQGRVTITADESTSTAYMELSSLRSEDTAVYFCARKFHFVRGSPFGMDVWGQGTTVTVSS VL: EIVLTQSPATLSLSPGERATLSCRASQSVSSYLAWYQQKPGQAPRLLIYDASNRAPGIPARFSGSGSGTDFTLTISSLEPEDFAVYYCQQRSNWPTFGQGTKVEIK | 0.0778 | 0.344 |  | 
2 | 12A4bd (Fab displayed on phage) (Fab, V domains shown) VH: QVQLVQSGAEVKKPGSSVKVSCKTSGDTFSTYAISWVRQAPGQGLEWMGGIIPLFGKAHYAQKFQGRVTITADESTSTAYMELSSLRSEDTAVYFCARKFHFVRGSPFGMDVWGQGTTVTVSS VL: not shown |  |  | 1.8 | 6.3
3 | 12A4a (Fab displayed on phage) (Fab, V domains shown) VH: QVQLVQSGAEVKKPGSSVKVSCKTSGDTFSTYAISWVRQAPGQGLEWMGGIIPIFGKAHYAQKFQGRVTITADESTSTAYMELSSLRSEDTAVYFCARKFHFVSGSPFGMDVWGQGTTVTVSS VL: EIVLTQSPATLSLSPGERATLSCRASQSVSSYLAWYQQKPGQAPRLLIYDASNRAPGIPARFSGSGSGTDFTLTISSLEPEDFAVYYCQQRSNWPTFGQGTKVEIK |  |  | 8.3 | 1.3
4 | 12A4bad (Fab displayed on phage) (Fab, V domains shown) VH: QVQLVQSGAEVKKPGSSVKVSCKTSGDTFSTYAISWVRQAPGQGLEWMGGIIPLFGKAHYAQKFQGRVTITADESTSTAYMELSSLRSEDTAVYFCARKFHFVRGSPFGMDVWGQGTTVTVSS VL: EIVLTQSPATLSLSPGERATLSCRASQSVSSYLAWYQQKPGQAPRLLIYDASNRAPGIPARFSGSGSGTDFTLTISSLEPEDFAVYYCQQRSNWPTFGQGTKVEIK |  |  | 1.5 | 7.5
